Measured values reported in PMC3104517 (Nature Communications, 2011).
Changes are numbered by the printed parent chain. Numbers in names are those of the source.

B1: AnxA5 triple mutant R16E/K27E/K56E (natural protein, rat)
chain: ALRGTVTDFSGFDGEADAEVLRKAMEGLGTDEDSILNLLTARSNAQRQQIAEEFETLFGRDLVNDMKSELTGKFEKLIVALMKPSRLYDAYELKHALKGAGTDEKVLTEIIASRTPEELRAIKQAYEEEYGSNLEDDVVGDTSGYYQRMLVVLLQANRDPDTAIDDAQVELDAQALFQAGELKWGTDEEKFITILGTRSVSHLRRVFDKYMTISGFQIEETIDRETSGNLENLLLAVVKSIRSIPAYLAETLYYAMKGAGTDDHTLIRVIVSRSEIDLFNIRKEFRKNFATSLYSMIKGDTSGDYKKALLLLCGGEDD
B2: AnxA5 single mutant K56E (natural protein, rat)
chain: B1 chain with E15R, E26K
B3: AnxA5 triple mutant R23E/K27E/K191E (natural protein, rat)
chain: B1 chain with E15R, R22E, E55K, K190E
B4: AnxA5 single mutant R16E (natural protein, rat)
chain: B1 chain with E26K, E55K
B5: AnxA5 double mutant K27E/K191E (natural protein, rat)
chain: B1 chain with E15R, E55K, K190E
B6: AnxA5 triple mutant R16E/K27E/K191E (natural protein, rat)
chain: B1 chain with E55K, K190E
B7: AnxA5 single mutant K27E (natural protein, rat)
chain: B1 chain with E15R, E55K
B8: AnxA5 single mutant R23E (natural protein, rat)
chain: B1 chain with E15R, R22E, E26K, E55K
B9: AnxA5 single mutant K191E (natural protein, rat)
chain: B1 chain with E15R, E26K, E55K, K190E

Target: the molecule itself
Experiment: 2D crystallisation on lipid monolayers, negative-stain TEM

Binding result, binds:
B1
B2
B3
B4
B5
B6
B7
B8
B9
